Source: US20040009534A1 (DYAX, published 2004)
Positions of bridges follow the written chain, without caps; N, C: chain ends. No end group written: not given here.

Assays:
[1] = biological target: T1, human plasma IgG3 (human, UniProt P01860-1 1-377); experiment: Oregon Green peptide, pH 4.0 + salt (500 mM NaCl)
T1 construct: Plasma-derived IgG isoform, bought
Method: (§1) Binding studies were performed using human plasma IgG isoforms: IgG1, IgG2, IgG3, and IgG4, obtained from Calbiochem.
(§2) Binding studies were carried out at either pH 4.0, 7.5, or 9.5, with or without salt in the following buffers: […]

[2] = biological target: T1, human plasma IgG3; experiment: Oregon Green peptide, pH 7.5 + salt (500 mM NaCl)
Method: as §1, §2

[3] = biological target: T1, human plasma IgG3; experiment: Oregon Green peptide, pH 4.0 - salt
Method: as §1, §2

[4] = biological target: T2, human plasma IgG2 (human, UniProt P01859-1 1-326 = IgG part); experiment: Oregon Green peptide, pH 7.5 + salt (500 mM NaCl); pH 7.5 + salt
T2 construct: Plasma-derived IgG isoform, bought
T2 sequence (P01859 other isoform, or with tags, fused parts or gaps): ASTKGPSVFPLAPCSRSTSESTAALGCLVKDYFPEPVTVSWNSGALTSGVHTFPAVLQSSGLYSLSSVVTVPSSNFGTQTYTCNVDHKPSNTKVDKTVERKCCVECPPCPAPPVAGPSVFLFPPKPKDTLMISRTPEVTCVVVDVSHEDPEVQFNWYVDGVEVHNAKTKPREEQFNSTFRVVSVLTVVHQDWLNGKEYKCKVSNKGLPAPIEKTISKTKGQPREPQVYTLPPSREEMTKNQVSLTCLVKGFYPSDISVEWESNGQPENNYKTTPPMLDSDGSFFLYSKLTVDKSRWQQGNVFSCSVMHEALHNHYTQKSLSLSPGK
Method: as §1, §2

[5] = biological target: T3, human plasma IgG4 (human, UniProt P01861-1 1-327 = IgG part); experiment: Oregon Green peptide, pH 7.5 - salt
T3 construct: Plasma-derived IgG isoform, bought
T3 sequence (P01861 other isoform, or with tags, fused parts or gaps): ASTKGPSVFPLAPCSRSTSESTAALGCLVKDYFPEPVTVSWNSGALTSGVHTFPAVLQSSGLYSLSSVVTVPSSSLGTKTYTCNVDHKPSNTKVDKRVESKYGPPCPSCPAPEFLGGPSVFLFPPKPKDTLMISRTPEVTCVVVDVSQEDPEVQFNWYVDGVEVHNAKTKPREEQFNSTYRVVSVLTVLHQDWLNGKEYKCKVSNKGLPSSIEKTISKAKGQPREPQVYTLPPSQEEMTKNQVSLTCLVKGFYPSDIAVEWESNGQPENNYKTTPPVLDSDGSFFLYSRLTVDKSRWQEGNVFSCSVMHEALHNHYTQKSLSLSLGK
Method: as §1, §2

[6] = biological target: T2, human plasma IgG2; experiment: Oregon Green peptide, pH 9.5 - salt
Method: as §1, §2

[7] = biological target: T1, human plasma IgG3; experiment: Oregon Green peptide, pH 9.5 - salt
Method: as §1, §2

[8] = biological target: T4, human plasma IgG1 (human, UniProt P01857-1 1-330 = IgG part); experiment: Oregon Green peptide, pH 7.5 - salt
T4 construct: Plasma-derived IgG isoform, bought
T4 sequence (P01857 other isoform, or with tags, fused parts or gaps): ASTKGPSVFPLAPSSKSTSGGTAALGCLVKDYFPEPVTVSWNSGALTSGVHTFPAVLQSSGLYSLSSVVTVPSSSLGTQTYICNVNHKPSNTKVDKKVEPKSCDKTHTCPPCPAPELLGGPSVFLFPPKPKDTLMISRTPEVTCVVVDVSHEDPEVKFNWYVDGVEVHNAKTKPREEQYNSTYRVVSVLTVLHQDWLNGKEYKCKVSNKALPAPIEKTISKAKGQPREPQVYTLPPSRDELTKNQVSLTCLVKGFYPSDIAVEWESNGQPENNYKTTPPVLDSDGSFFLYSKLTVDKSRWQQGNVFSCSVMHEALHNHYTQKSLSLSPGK
Method: as §1, §2

[9] = biological target: T3, human plasma IgG4; experiment: Oregon Green peptide, pH 4.0 - salt
Method: as §1, §2

[10] = biological target: T4, human plasma IgG1; experiment: Oregon Green peptide, pH 4.0 - salt
Method: as §1, §2

[11] = biological target: T1, human plasma IgG3; experiment: Oregon Green peptide, TBS pH 7.5
Method: as §1, §2

[12] = biological target: T1, human plasma IgG3; experiment: Oregon Green peptide, pH 9.5 + salt (500 mM NaCl)
Method: as §1, §2

[13] = biological target: T5, goat serum albumin (Goat); experiment: labeled peptide, KD; PBS, pH 7.4, 0.14 M NaCl
T5 construct: also called GSA
T5 sequence (P85295 whole entry, looked up): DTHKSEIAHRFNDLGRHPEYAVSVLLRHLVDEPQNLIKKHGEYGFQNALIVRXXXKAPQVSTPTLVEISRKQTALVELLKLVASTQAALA

[14] = biological target: T6, human serum albumin (human, UniProt P02768 25-609); experiment: labeled peptide, KD; PBS, pH 7.4, 0.14 M NaCl
T6 construct: also called HSA
T6 sequence (P02768 25-609): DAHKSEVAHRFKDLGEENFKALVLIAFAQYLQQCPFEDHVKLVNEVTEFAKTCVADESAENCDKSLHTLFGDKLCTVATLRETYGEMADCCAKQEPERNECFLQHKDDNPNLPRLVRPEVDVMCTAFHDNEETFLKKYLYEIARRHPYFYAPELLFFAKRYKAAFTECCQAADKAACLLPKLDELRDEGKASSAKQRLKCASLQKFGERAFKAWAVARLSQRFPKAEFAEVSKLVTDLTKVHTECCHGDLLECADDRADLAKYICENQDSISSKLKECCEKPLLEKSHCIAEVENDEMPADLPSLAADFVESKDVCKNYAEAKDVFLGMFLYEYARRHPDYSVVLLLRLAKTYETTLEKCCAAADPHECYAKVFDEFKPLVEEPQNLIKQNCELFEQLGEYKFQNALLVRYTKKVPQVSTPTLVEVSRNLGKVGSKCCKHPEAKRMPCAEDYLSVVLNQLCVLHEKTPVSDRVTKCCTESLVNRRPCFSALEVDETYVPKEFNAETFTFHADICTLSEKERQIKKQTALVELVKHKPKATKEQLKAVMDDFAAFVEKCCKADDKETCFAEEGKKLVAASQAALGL

[15] = biological target: T7, rat serum albumin (Rat, UniProt P02770 25-608); experiment: labeled peptide, KD; PBS, pH 7.4, 0.14 M NaCl
T7 sequence (P02770 25-608 limits assumed): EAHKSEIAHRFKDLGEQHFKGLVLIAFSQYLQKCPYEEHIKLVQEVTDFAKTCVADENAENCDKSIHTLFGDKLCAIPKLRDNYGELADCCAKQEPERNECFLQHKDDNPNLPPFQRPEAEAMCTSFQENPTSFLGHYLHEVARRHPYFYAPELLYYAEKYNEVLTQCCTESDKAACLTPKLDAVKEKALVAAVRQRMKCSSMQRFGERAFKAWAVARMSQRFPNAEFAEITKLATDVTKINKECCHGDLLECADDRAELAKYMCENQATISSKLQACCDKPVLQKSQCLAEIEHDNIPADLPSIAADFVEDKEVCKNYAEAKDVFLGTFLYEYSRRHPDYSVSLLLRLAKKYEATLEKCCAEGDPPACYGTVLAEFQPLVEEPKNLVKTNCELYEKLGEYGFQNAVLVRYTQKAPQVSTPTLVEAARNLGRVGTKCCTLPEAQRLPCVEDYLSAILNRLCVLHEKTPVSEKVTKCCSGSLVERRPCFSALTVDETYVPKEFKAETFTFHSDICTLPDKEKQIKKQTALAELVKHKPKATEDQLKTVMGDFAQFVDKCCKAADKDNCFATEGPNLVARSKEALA

[16] = biological target: T8, Rhesus serum albumin (Rhesus, UniProt Q28522 17-600); experiment: labeled peptide, KD; PBS, pH 7.4, 0.14 M NaCl
T8 sequence (Q28522 17-600 limits assumed): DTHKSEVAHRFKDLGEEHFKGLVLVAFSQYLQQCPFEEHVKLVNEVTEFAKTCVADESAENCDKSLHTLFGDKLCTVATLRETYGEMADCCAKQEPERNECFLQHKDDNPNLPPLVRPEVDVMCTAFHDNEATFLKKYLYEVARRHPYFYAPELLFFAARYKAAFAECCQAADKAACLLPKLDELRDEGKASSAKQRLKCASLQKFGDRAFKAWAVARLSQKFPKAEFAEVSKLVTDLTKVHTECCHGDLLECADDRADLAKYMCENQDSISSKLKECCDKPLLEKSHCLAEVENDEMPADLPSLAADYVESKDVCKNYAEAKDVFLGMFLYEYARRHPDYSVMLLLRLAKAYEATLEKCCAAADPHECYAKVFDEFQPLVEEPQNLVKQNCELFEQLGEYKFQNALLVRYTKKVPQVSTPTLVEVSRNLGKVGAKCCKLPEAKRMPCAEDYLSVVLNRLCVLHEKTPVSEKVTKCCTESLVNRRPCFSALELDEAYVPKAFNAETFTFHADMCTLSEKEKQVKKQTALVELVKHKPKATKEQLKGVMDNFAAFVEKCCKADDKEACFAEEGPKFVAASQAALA

[17] = biological target: T5, goat serum albumin; experiment: labeled peptide, KD; 3 mM phosphate, pH 6.2, 0 M NaCl
[18] = biological target: T6, human serum albumin; experiment: as above
[19] = biological target: T7, rat serum albumin; experiment: as above
[20] = biological target: T8, Rhesus serum albumin; experiment: as above
[21] = biological target: T9, pig serum albumin (Pig, UniProt P08835 25-607); experiment: labeled peptide, KD; 3 mM phosphate, pH 6.2, 0 M NaCl; labeled peptide in solution; 3 mM phosphate, pH 6.2, 0 M NaCl
T9 sequence (P08835 25-607 limits assumed): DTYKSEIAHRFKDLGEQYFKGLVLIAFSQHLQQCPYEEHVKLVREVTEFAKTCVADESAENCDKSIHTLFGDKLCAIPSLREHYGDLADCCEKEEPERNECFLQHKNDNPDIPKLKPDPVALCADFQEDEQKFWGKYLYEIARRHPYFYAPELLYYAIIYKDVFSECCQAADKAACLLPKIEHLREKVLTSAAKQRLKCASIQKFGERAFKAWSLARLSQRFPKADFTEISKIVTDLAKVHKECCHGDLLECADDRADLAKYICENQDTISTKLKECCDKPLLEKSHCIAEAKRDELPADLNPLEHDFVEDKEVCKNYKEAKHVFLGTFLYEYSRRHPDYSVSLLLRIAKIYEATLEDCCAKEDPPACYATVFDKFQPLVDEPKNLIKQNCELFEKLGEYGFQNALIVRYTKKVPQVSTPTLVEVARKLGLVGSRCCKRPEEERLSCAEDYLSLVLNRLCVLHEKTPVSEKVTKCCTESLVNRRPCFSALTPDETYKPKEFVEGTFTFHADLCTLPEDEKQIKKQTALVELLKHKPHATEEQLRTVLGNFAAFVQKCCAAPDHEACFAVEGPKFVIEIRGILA

[22] = biological target: T10, bovine serum albumin (Bovine, UniProt P02769 25-607); experiment: as above
T10 construct: also called BSA
T10 sequence (P02769 25-607 limits assumed): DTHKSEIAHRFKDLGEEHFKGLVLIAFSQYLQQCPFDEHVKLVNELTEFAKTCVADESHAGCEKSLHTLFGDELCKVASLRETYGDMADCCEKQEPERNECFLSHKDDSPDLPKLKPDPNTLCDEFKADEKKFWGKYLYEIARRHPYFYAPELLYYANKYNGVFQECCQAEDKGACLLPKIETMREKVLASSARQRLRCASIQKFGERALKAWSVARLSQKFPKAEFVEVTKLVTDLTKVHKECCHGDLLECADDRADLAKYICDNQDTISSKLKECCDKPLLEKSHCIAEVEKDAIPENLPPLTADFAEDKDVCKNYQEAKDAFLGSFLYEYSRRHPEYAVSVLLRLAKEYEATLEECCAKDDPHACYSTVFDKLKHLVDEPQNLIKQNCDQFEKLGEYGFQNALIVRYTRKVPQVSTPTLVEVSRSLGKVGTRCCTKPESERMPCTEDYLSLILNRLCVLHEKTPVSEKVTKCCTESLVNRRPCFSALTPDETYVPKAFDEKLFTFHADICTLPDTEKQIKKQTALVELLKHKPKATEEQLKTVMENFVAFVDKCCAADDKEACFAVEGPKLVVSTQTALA

[23] = biological target: rabbit serum albumin (Rabbit, UniProt P49065 25-608); experiment: labeled peptide, KD; 3 mM phosphate, pH 6.2, 0 M NaCl
Sequence of rabbit serum albumin (P49065 25-608 limits assumed): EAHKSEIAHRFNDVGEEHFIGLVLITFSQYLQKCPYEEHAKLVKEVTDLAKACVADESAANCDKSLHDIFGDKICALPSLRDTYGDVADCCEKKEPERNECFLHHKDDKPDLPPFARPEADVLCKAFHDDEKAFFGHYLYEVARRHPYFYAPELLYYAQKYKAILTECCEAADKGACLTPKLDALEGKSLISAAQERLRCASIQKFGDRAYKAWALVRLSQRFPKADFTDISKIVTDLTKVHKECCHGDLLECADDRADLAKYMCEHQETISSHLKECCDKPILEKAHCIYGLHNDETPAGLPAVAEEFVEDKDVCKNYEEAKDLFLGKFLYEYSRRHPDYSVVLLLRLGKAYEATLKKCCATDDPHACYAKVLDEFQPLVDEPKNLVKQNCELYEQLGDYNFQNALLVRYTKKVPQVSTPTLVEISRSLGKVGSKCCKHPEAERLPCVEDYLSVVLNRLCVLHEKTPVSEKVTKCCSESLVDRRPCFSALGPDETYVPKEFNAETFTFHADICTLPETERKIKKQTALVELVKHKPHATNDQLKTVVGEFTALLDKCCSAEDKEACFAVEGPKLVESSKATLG

[24] = biological target: T9, pig serum albumin; experiment: as above
[25] = biological target: T2, human plasma IgG2; experiment: Oregon Green peptide, pH 4.0 + salt (500 mM NaCl)
Method: as §1, §2

[26] = biological target: T4, human plasma IgG1; experiment: Oregon Green peptide, pH 4.0 + salt (500 mM NaCl)
Method: as §1, §2

[27] = biological target: T2, human plasma IgG2; experiment: Oregon Green peptide, pH 7.5 - salt
Method: as §1, §2

[28] = biological target: T2, human plasma IgG2; experiment: Oregon Green peptide, pH 4.0 - salt
Method: as §1, §2

T1 sequence (P01860 other isoform, or with tags, fused parts or gaps): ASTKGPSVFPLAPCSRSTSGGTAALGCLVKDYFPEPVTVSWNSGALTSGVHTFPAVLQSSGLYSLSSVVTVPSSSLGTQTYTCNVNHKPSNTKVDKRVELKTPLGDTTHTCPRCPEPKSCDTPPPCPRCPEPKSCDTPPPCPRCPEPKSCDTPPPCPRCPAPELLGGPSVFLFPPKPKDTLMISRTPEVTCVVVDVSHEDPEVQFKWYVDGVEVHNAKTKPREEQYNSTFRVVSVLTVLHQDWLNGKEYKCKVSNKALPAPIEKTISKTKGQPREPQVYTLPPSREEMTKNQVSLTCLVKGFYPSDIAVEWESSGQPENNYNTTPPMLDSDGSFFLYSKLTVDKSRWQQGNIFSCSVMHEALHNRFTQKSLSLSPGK

B1: DX389 (peptide)
peptide: AGPHNCDDHYWYCKWFPGPEGGGK
modifications: N-terminal acetyl (Ac-); C-terminal amide (-NH2); Oregon Green labeled
notes: Synthesised by BACHEM, Oregon Green labeled, HPLC purified
[1]
  Kd: 1800 nM
[2]
  Kd: > 10000 nM
[3]
  Kd: 2500 nM
[4]
  Kd: > 10000 nM

B2: DX395 (peptide)
peptide: Ac-AGKYWCNLWGVCPANPGPEGGGK-NH2
modifications: cysteine pairing not given here; also: Oregon Green labeled, place not given here
notes: as for B1
[5]
  Kd: > 10000 nM
[3]
  Kd: 1000 nM

B3: DX398 (peptide)
peptide: AGAATCSTSYWYYQWFCTDSPGPEGGGK
modifications: N-terminal acetyl (Ac-); C-terminal amide (-NH2); Oregon Green labeled
notes: as for B1
[1]
  Kd: 40 nM
[6]
  Kd: > 10000 nM
[7]
  Kd: > 10000 nM
[5]
  Kd: 3500 nM
[8]
  Kd: 4600 nM
[2]
  Kd: 300 nM
[9]
  Kd: 1600 nM
[3]
  Kd: 20 nM
[10]
  Kd: 2400 nM
[11]
  Kd: > 10000 nM
[12]
  Kd: 300 nM

B4: DX413 (peptide)
peptide: AGYWYCWFPDRPECPLYPGPEGGGK
modifications: N-terminal acetyl (Ac-); C-terminal amide (-NH2); Oregon Green labeled
notes: as for B1
[1]
  Kd: 1100 nM
[3]
  Kd: 840 nM

B5: DX392 (peptide)
peptide: AGSYWCKIWDVCPQSPGPEGGGK
modifications: N-terminal acetyl (Ac-); C-terminal amide (-NH2); Oregon Green labeled
notes: as for B1
[1]
  Kd: 600 nM
[2]
  Kd: > 10000 nM
[3]
  Kd: 320 nM
[12]
  Kd: > 10000 nM

B6: DX-321 (peptide)
peptide: AEGTGDRNMCKFSWIRSPAFCARADPE
modifications: not fully specified (bridges); cysteine pairing not given here; also: label not named, exact tested form not given here, immobilised via C-terminal lysine to Sepharose
[13]
  Kd: 83000 nM
[14]
  Kd: 84000 nM
[15]
  Kd: 117000 nM
[16]
  Kd: 82000 nM
[17]
  Kd: 95000 nM
[18]
  Kd: 900 nM
[19]
  Kd: 23000 nM
[20]
  Kd: 38000 nM
[21]
  Kd: 21000 nM
[22]
  Kd: 21000 nM

B7: DX-236 (peptide)
peptide: AEGTGDFWFCDRIAWYPQHLCEFLDPEGGGK
modifications: disulfide 10-21 (inferred); not fully specified; also: labeled, label not named, coupled via C-terminal lysine to NHS-Sepharose
notes: Cyclic (disulfide) phage-display peptide
[13]
  Kd: 23000 nM
[23]
  Kd: 500 nM
[17]
  Kd: 1600 nM
[24]
  Kd: 500 nM

B8: DX404 (peptide)
peptide: AGTYWCTFWELPCDPAPGPEGGGK
modifications: N-terminal acetyl (Ac-); C-terminal amide (-NH2); Oregon Green labeled
notes: as for B1
[25]
  Kd: 2000 nM
[1]
  Kd: 200 nM
[26]
  Kd: 2000 nM
[27]
  Kd: 8600 nM
[8]
  Kd: 8800 nM
[28]
  Kd: 1000 nM
[3]
  Kd: 10 nM
[10]
  Kd: 1500 nM
